From paper PMC4595643, “Pathways of allosteric regulation in Hsp70 chaperones” (Nature Communications, 2015)
Ends that are not written are not given here. * marks the point of attachment. IAANS = 2-(4'-(iodoacetamido)anilino)naphthalene-6-sulfonic acid label, O=C(C*)Nc1ccc(Nc2ccc3cc(S(=O)(=O)O)ccc3c2)cc1; HiLyte Fluor 488 maleimide = HiLyte Fluor 488-maleimide (Anaspec) label

What was measured:
Details in all cases: both partners purified
DnaK-V440A [1] = biological target: T1, DnaK-V440A (Escherichia coli, UniProt P0A6Y8 1-638, V440A); test: MST; 100 nM HiLyte Fluor 488-labelled peptide with 0.6 nM-10 μM DnaK, HKM buffer (25 mM HEPES/KOH pH 7.6, 50 mM KCl, 5 mM MgCl2) with 0.1% Tween-20, incubated at least 30 min, 30 °C, Monolith NT.115
T1 construct: DnaK, the Hsp70 of Escherichia coli, Val440 replaced by alanine; source: E. coli ΔdnaK52 cells (BB1553), purified (Ni-IDA, Resource Q), nucleotides removed

wild-type DnaK [2] = biological target: T2, wild-type DnaK (Escherichia coli, UniProt P0A6Y8 1-638); test: as above
T2 construct: DnaK, the Hsp70 of Escherichia coli; also called DnaKwt; Wt; source: E. coli ΔdnaK52 cells (BB1553), purified (Ni-IDA, Resource Q), nucleotides removed

DnaK-L484A [3] = biological target: T3, DnaK-L484A (Escherichia coli, UniProt P0A6Y8 1-638, L484A); test: as above
T3 construct: DnaK, the Hsp70 of Escherichia coli, Leu484 replaced by alanine; source: E. coli ΔdnaK52 cells (BB1553), purified (Ni-IDA, Resource Q), nucleotides removed

DnaK-D148A [4] = biological target: T4, DnaK-D148A (Escherichia coli, UniProt P0A6Y8 1-638, D148A); test: as above
T4 construct: DnaK, the Hsp70 of Escherichia coli, Asp148 replaced by alanine; source: E. coli ΔdnaK52 cells (BB1553), purified (Ni-IDA, Resource Q), nucleotides removed

DnaK-V440A [5] = biological target: T1, DnaK-V440A; test: fluorescence dissociation kinetics (chase with unlabelled peptide); in the presence of ATP; 0.5 μM DnaK and 0.5 μM IAANS-labelled peptide pre-incubated at least 30 min, then mixed with 50-fold excess of unlabelled peptide; HKM buffer, 30 °C; stopped flow
DnaK-L484A [6] = biological target: T3, DnaK-L484A; test: as above
DnaK-D481A = biological target: T5, DnaK-D481A (Escherichia coli, UniProt P0A6Y8 1-638, D481A); test: as above
T5 construct: DnaK, the Hsp70 of Escherichia coli, Asp481 replaced by alanine; source: E. coli ΔdnaK52 cells (BB1553), purified (Ni-IDA, Resource Q), nucleotides removed

DnaK-D481K = biological target: T6, DnaK-D481K (Escherichia coli, UniProt P0A6Y8 1-638, D481K); test: as above
T6 construct: DnaK, the Hsp70 of Escherichia coli, Asp481 replaced by lysine; source: E. coli ΔdnaK52 cells (BB1553), purified (Ni-IDA, Resource Q), nucleotides removed

DnaK-Y145A = biological target: T7, DnaK-Y145A (Escherichia coli, UniProt P0A6Y8 1-638, Y145A); test: fluorescence dissociation kinetics (chase with unlabelled peptide); no nucleotide; 0.5 μM DnaK and 0.5 μM IAANS-labelled peptide pre-incubated at least 30 min, then mixed with 50-fold excess of unlabelled peptide; HKM buffer, 30 °C; Perkin Elmer LS55
T7 construct: DnaK, the Hsp70 of Escherichia coli, Tyr145 replaced by alanine; source: E. coli ΔdnaK52 cells (BB1553), purified (Ni-IDA, Resource Q), nucleotides removed

DnaK-Y145F = biological target: T8, DnaK-Y145F (Escherichia coli, UniProt P0A6Y8 1-638, Y145F); test: as above
T8 construct: DnaK, the Hsp70 of Escherichia coli, Tyr145 replaced by phenylalanine; source: E. coli ΔdnaK52 cells (BB1553), purified (Ni-IDA, Resource Q), nucleotides removed

wild-type DnaK [7] = biological target: T2, wild-type DnaK; test: as above
DnaK-Y145H = biological target: T9, DnaK-Y145H (Escherichia coli, UniProt P0A6Y8 1-638, Y145H); test: as above
T9 construct: DnaK, the Hsp70 of Escherichia coli, Tyr145 replaced by histidine; source: E. coli ΔdnaK52 cells (BB1553), purified (Ni-IDA, Resource Q), nucleotides removed

DnaK-F146A = biological target: T10, DnaK-F146A (Escherichia coli, UniProt P0A6Y8 1-638, F146A); test: as above
T10 construct: DnaK, the Hsp70 of Escherichia coli, Phe146 replaced by alanine; source: E. coli ΔdnaK52 cells (BB1553), purified (Ni-IDA, Resource Q), nucleotides removed

DnaK-D148A [8] = biological target: T4, DnaK-D148A; test: as above

binding result (DnaK-V440A [1])	binding result (wild-type DnaK [2])	binding result (DnaK-L484A [3])	binding result (DnaK-D148A [4])	binding result (DnaK-V440A [5])	binding result (DnaK-L484A [6])	binding result (DnaK-D481A)	binding result (DnaK-D481K)	binding result (DnaK-Y145A)	binding result (DnaK-Y145F)	binding result (wild-type DnaK [7])	binding result (DnaK-Y145H)	binding result (DnaK-F146A)	binding result (DnaK-D148A [8])	Binder
binds	binds	binds	binds											QRKLFFNLRKTKQC(HiLyte Fluor 488 maleimide) (residues Q132-Q144 of σ32, the E. coli heat shock transcription factor; cysteine added at the C-terminus of the peptide (the '-C' of its name); also called fluorescently labelled peptide derived from σ32) [HiLyte Fluor 488-labelled σ32-Q132-Q144-C]
				binds	binds	binds	binds	binds	binds	binds	binds	binds	binds	QRKLFFNLRKTKQC(IAANS) (residues Q132-Q144 of σ32, the E. coli heat shock transcription factor; cysteine added at the C-terminus of the peptide (the '-C' of its name); also called 2-(4'-(iodoacetamido)anilino)naphthalene-6-sulfonic acid labelled σ32-Q132-Q144-C; substrate) [IAANS-labelled peptide σ32-Q132-Q144-C]
